Experimental data taken from paper PMC7708043 (Nucleic Acids Research, 2020).

T1: mEGFP-ALC1 (UniProt Q86WJ1 1-897)
T1 sequence (looked up): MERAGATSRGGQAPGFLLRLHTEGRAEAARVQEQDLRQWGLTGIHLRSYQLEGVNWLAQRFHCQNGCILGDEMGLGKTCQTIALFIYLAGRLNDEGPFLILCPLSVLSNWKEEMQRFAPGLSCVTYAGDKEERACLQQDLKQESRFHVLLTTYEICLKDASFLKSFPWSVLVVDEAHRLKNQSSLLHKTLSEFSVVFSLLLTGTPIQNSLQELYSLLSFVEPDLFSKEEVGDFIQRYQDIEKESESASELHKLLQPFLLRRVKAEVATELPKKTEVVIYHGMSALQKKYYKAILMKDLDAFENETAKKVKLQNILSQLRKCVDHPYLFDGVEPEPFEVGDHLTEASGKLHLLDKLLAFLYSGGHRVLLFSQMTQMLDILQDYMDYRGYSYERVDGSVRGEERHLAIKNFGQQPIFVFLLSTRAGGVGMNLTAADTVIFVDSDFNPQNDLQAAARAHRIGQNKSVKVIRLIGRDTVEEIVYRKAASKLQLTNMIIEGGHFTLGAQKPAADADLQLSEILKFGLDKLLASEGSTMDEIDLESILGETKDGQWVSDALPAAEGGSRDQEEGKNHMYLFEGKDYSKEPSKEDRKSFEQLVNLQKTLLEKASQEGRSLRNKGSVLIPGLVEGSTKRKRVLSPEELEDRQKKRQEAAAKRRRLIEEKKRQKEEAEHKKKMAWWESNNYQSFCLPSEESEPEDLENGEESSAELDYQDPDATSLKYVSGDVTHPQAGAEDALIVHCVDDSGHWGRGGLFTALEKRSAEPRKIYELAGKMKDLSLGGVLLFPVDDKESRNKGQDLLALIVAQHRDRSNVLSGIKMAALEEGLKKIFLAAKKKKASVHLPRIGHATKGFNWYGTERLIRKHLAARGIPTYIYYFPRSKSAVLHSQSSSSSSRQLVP

B1: mCherry-ALC1 (natural protein, UniProt Q86WJ1 1-897, looked up)
chain: T1 sequence (looked up)
B2: mCherry-TRIM33 (natural protein, UniProt Q9UPN9 1-1127, looked up)
chain: MAENKGGGEAESGGGGSGSAPVTAGAAGPAAQEAEPPLTAVLVEEEEEEGGRAGAEGGAAGPDDGGVAAASSGSAQAASSPAASVGTGVAGGAVSTPAPAPASAPAPGPSAGPPPGPPASLLDTCAVCQQSLQSRREAEPKLLPCLHSFCLRCLPEPERQLSVPIPGGSNGDIQQVGVIRCPVCRQECRQIDLVDNYFVKDTSEAPSSSDEKSEQVCTSCEDNASAVGFCVECGEWLCKTCIEAHQRVKFTKDHLIRKKEDVSESVGASGQRPVFCPVHKQEQLKLFCETCDRLTCRDCQLLEHKEHRYQFLEEAFQNQKGAIENLLAKLLEKKNYVHFAATQVQNRIKEVNETNKRVEQEIKVAIFTLINEINKKGKSLLQQLENVTKERQMKLLQQQNDITGLSRQVKHVMNFTNWAIASGSSTALLYSKRLITFQLRHILKARCDPVPAANGAIRFHCDPTFWAKNVVNLGNLVIESKPAPGYTPNVVVGQVPPGTNHISKTPGQINLAQLRLQHMQQQVYAQKHQQLQQMRMQQPPAPVPTTTTTTQQHPRQAAPQMLQQQPPRLISVQTMQRGNMNCGAFQAHQMRLAQNAARIPGIPRHSGPQYSMMQPHLQRQHSNPGHAGPFPVVSVHNTTINPTSPTTATMANANRGPTSPSVTAIELIPSVTNPENLPSLPDIPPIQLEDAGSSSLDNLLSRYISGSHLPPQPTSTMNPSPGPSALSPGSSGLSNSHTPVRPPSTSSTGSRGSCGSSGRTAEKTSLSFKSDQVKVKQEPGTEDEICSFSGGVKQEKTEDGRRSACMLSSPESSLTPPLSTNLHLESELDALASLENHVKIEPADMNESCKQSGLSSLVNGKSPIRSLMHRSARIGGDGNNKDDDPNEDWCAVCQNGGDLLCCEKCPKVFHLTCHVPTLLSFPSGDWICTFCRDIGKPEVEYDCDNLQHSKKGKTAQGLSPVDQRKCERLLLYLYCHELSIEFQEPVPASIPNYYKIIKKPMDLSTVKKKLQKKHSQHYQIPDDFVADVRLIFKNCERFNEMMKVVQVYADTQEINLKADSEVAQAGKAVALYFEDKLTEIYSDRTFAPLPEFEQEEDDGEVTEDSDEDFIQPRRKRLKSDERPVHIK

What was measured:
Test in all cases: FRET or BRET
[1] = biological target: T2, mEGFP-PARP1 (UniProt P09874 1-1014)
T2 sequence (P09874 whole entry): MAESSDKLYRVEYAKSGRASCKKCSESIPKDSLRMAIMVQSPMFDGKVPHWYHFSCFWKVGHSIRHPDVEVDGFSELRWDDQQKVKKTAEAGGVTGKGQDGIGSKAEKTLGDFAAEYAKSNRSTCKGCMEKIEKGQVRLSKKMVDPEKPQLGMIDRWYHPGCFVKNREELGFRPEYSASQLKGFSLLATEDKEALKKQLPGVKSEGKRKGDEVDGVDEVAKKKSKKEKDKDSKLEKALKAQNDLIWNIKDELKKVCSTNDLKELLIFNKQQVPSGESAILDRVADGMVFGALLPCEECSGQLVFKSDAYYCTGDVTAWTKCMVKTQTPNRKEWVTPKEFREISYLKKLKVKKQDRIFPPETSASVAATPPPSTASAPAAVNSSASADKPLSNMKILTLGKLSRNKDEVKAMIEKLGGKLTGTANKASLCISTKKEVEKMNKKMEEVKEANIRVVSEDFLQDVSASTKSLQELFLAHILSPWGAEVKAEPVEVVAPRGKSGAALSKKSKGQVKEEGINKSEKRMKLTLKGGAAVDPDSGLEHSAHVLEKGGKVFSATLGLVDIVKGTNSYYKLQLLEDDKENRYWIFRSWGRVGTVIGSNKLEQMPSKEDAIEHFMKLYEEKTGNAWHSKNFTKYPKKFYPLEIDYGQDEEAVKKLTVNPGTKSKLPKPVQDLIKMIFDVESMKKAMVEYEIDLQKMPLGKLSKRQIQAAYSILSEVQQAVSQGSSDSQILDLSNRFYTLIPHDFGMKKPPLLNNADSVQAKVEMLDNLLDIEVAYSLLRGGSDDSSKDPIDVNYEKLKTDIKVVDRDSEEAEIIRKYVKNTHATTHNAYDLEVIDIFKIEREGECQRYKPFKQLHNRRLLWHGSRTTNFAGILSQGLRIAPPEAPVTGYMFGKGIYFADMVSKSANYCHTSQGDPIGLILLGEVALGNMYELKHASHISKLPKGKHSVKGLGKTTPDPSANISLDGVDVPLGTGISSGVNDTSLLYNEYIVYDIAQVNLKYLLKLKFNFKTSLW

[2] = biological target: T2, mEGFP-PARP1; remark: listed apart in the source
[3] = biological target: T1, mEGFP-ALC1

Row | Binder | median FRET efficiency (1 min after damage) [1] | median FRET efficiency (5 min after damage) [1] | median FRET efficiency (at the damage site) [2] | median FRET efficiency (at the damage site) [3]
1 | B1 | 5.8% | 3.8% | 5.5% | –
2 | B2 | – | – | – | 2.2%
